Data from patent US20030129189A1, “Tumor necrosis factor-gamma” (priority 1994, published 2003).
Read-outs that look alike come from different tables or passages of the source. Each block holds one molecule with its values, some of them ahead of it.

Experiments:
HUVEC cells = assay: Induction of TNF-gamma-beta mRNA in HUVEC cells; assay type: cell-based, human; settings: for TNF-gamma-beta mRNA level: stimulated HUVEC cells; for time of peak in expression of TNF-gamma-beta mRNA: after treatment
Experimental: More TNF-gamma-beta mRNA was detected than that of TNF-gamma-alpha using both methods.
Total RNA was isolated from human cell lines and primary cells using TriZOL (Invitrogen). TaqMan was carried out in a 25 μl reaction containing 25 ng of total RNA, 0.6 μM each of gene-specific forward and reverse primers and 0.2 μM of gene-specific fluorescence probe. […] Gene-specific PCR products were measured using an ABI PRISM 7700 Sequence Detection System following the manufacturer's instruction (PE Corp.).

TNF-gamma-beta [1] = biological target: T1, TNF-gamma-beta (Homo sapiens, UniProt O95150); assay: Inhibition of TNF-gamma-beta activation of NF-κB in 293T cells; assay type: cell-based
T1 construct: made in house; host or cells: E. coli (untagged) or 293T (FLAG-tagged)
T1 sequence (O95150 72-251): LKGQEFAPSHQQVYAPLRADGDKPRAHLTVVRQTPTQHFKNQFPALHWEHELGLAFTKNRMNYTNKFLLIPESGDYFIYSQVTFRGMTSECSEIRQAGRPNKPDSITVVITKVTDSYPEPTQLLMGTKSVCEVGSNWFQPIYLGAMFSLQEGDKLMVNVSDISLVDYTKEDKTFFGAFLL
Experimental: To avoid spontaneous apoptosis or NF-κB activation accompanied with DR3 overexpression, a limited amount of DR3-expression DNA that by itself minimally activated these pathways was used.
293T cells were transiently transfected using LipofectAMINE and PLUS reagents according to the manufacturer's instruction (Invitrogen). For reporter assays, 293T cells, at 5×10^5 cells/well, were seeded in 6-well plates and transfected with a total of 1 microgram of DNA. pC4 DNA was used as filler DNA. Conditioned supernatant was collected 24 hr post-transfection and assayed for secreted alkaline phosphatase (SEAP) activity using the Phospha-Light™ chemiluminescent reporter gene assay system (Tropix). pCMV-lacZ was used as internal control for transfection efficiency normalization.

[2] = biological target: T2, full length TNF-gamma-beta on the cell surface (HEK293F stable transfectants; transfected cells) (human, UniProt O95150 1-251); assay: flow cytometry on HEK293F cells expressing full length TNF-gamma-beta
T2 construct: also called TNF-gamma-beta expressing cells
T2 sequence: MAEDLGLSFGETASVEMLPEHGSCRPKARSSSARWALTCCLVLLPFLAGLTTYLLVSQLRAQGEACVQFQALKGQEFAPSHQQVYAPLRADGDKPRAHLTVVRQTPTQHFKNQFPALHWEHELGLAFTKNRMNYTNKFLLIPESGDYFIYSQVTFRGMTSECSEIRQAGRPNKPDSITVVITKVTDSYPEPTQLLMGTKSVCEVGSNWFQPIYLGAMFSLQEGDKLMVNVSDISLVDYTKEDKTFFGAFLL
Experimental: TR6 has been previously described as a decoy receptor (Pitti et al., Nature 396:699-703 (1998); Yu et al., J. Biol. Chem. 274:13733-6 (1999)) capable of competing with Fas and HveA for binding of FasL and LIGHT, respectively.
One million cells, in 0.1 ml of FACS buffer (PBS, 0.1% BSA, 0.1% NaN₃), were incubated with 0.1-1 microgram of protein or antibody at RT for 15 min. The cells were washed with 3 ml of FACS buffer, reacted with biotinylated primary antibody, and stained with PE-conjugated secondary antibody at RT for 15 min. Cells were then washed again, resuspended in 0.5 microgram/ml of propidium iodide, and live cells were gated and analyzed on a FACScan using the CellQuest software (BD Biosciences).

TNF-gamma-beta [3] = biological target: T3, TNF-gamma-beta (Homo sapiens, UniProt O95150); assay: Coimmunoprecipitation of TNF-gamma-beta by TNFR-Fc proteins; assay type: binding
T3 construct: made in house; host or cells: 293T cells, transient transfection
T3 sequence (O95150 72-251 limits assumed): T1 sequence (O95150 72-251)
Excerpt: The beads were then precipitated and washed extensively with PBST buffer (PBS, 0.5% Triton X-100) before boiled in SDS-sample buffer. Proteins were resolved on 4-20% Tris-Glycine gels (NOVEX), transferred to nitrocellulose membranes, and blotted with anti-Flag M2 monoclonal antibody (1 microgram/ml, Sigma) andhorseradish peroxidase (HRP)-conjugated goat anti-mouse IgG antibody (0.5 microgram/ml).

CB6F1 mice = assay: Parent-into-F1 acute graft-versus-host (in vivo MLR) model; design: species or system mouse; settings: 3 mg/kg/day i.v. for 5 days
Experimental: Briefly, CB6F1 mice were injected with 1.5×10^8 pooled spleen cells of C57BL/6 mice administered intravenously on day 0.
The F1 (CB6F1) of C57BL/6×BALB/c mice (H-2^bxd) were transfused intravenously with 1.5×10^8 spleen cells from C57BL/6 mice (H-2^b) on day 0. […] The spleens of the recipient F1 mice were harvested on day 5, weighed and single cell suspensions prepared for in vitro assays.
Splenocytes from normal and the transfused F1 mice were cultured in triplicate in 96-well flat-bottomed plates (4×10^5 cells/200 microliters/well) for 2-4 days. After removing 100 microliters of supernatant per well on the day of harvest, 10 microliters Alamar Blue (Biosource) was added to each well and the cells cultured for additional 4 h. The cell number in each well was assessed according to OD590 nm minus OD530 nm background, using a CytoFluor apparatus (PerSeptive Biosystems). Cytokines in the culture supernatant were measured with commercial ELISA kits from Endogen or R & D Systems following manufacturer's instructions.

Molecule: bFGF: growth factor stimulus of HUVEC cells [reference compound]
TNF-gamma-beta mRNA level (HUVEC cells): did not significantly affect the expression of TNF-gamma-beta

Molecule: CCCCCCCCCCCCCC(=O)O[C@@H]1[C@@H](C)[C@@]2(O)[C@@H](C=C(CO)C[C@]3(O)C(=O)C(C)=C[C@@H]23)[C@@H]2C(C)(C)[C@]12OC(C)=O [PMA, reference compound]
time of peak in expression of TNF-gamma-beta mRNA (HUVEC cells): 6 h
TNF-gamma-beta mRNA level (HUVEC cells): rapidly induced high levels of TNF-gamma-beta mRNA

B1: Fc-fusion form of the extracellular domain of DcR2 (Fc fusion, UniProt Q9UBN6 56-211, looked up)
chain: ATIPRQDEVPQQTVAPQQQRRSLKEEECPAGSHRSEYTGACNPCTEGVDYTIASNNLPSCLLCTVCKSGQTNKSSCTTTRDTVCQCEKGSFQDKNSPEMCRTCRTGCPRGMVKVSNCTPRSDIKCKNESAASSTGKTPAAEETVTTILGMLASPYH
notes: extracellular domain; not shown: Fc part of the fusion
binding result [2]: no binding

B2: Fas-Fc: extracellular domain of Fas (aa 1-169) fused to Fc of human IgG1 (protein)
chain: QVTDINSKGLELRKTVTTVETQNLEGLHHDGQFCHKPCPPGERKARDCTVNGDEPDCVPCQEGKEYTDKAHFSSKCRRCRLCDEGHGLEVEINCTRTQNTKCRCKPNFFCNSTVCEHCDPCTKCEHGIIKECTLTSNTKCKEEG
modifications: left off: a dimerising Fc or GST
notes: extracellular domain of Fas (aa 1-169) fused to Fc of human IgG1
inhibition of TNF-gamma-beta activation of NF-κB (TNF-gamma-beta [1]): but not by the addition of Fas-Fc or TNFR1-Fc
immunoprecipitation of TNF-gamma-beta (TNF-gamma-beta [3]): could not immunoprecipitate FLAG-TNF-gamma-beta

B3: TL5: another TNF family ligand used here as a control (protein, UniProt O43557 83-240, looked up)
Tumor necrosis factor ligand …: LIQERRSHEVNPAAHLTGANSSLTGSGGPLLWETQLGLAFLRGLSYHDGALVVTKAGYYYIYSKVQLGGVGCPLGLASTITHGLYKRTPRYPEELELLVSQQSPCGRATSSSRVWWDSSFLGGVVHLEAGEKVVVRVLDERLVRLRDGTRSYFGAFMV
IL-2 production vs buffer group (CB6F1 mice): neither TNF-gamma-beta nor TL5 show any significant effect
IL-12 production vs buffer group (CB6F1 mice): neither TNF-gamma-beta nor TL5 show any significant effect
spleen weight vs buffer group (CB6F1 mice): no statistically significant difference from buffer group
spontaneous (ex-vivo) splenocyte proliferation vs buffer group (CB6F1 mice): no statistically significant difference from buffer group
GM-CSF production vs buffer group (CB6F1 mice; splenocytes): no statistically significant difference from buffer group
INF-gamma production vs buffer group (CB6F1 mice; splenocytes): no statistically significant difference from buffer group

B4: Fc-fusion form of the extracellular domain of RANK (Fc fusion, UniProt Q9Y6Q6 30-212, looked up)
chain: IAPPCTSEKHYEHLGRCCNKCEPGKYMSSKCTTTSDSVCLPCGPDEYLDSWNEEDKCLLHKVCDTGKALVAVVAGNSTTPRRCACTAGYHWSQDCECCRRNTECAPGLGAQHPLQLNKDTVCKPCLAGYFSDAFSSTDKCRPWTNCTFLGKRVEHHGTEKSDAVCSSSLPARKPPNEPHVYLP
notes: as for B1
binding result [2]: no binding

B7: TACI-Fc: extracellular domain of TACI (aa 1-159) fused to Fc of human IgG1 (protein)
chain: MSGLGRSRRGGRSRVDQEERFPQGLWTGVAMRSCPEEQYWDPLLGTCMSCKTICNHQSQRTCAAFCRSLSCRKEQGKFYDHLLRDCISCASICGQHPKQCAYFCENKLRSPVNLPPELRRQRSGEVENNSDNSGRYQGLEHRGSEASPALPGLKLSADQ
modifications: left off: a dimerising Fc or GST
notes: extracellular domain of TACI (aa 1-159) fused to Fc of human IgG1
immunoprecipitation of TNF-gamma-beta (TNF-gamma-beta [3]): could not immunoprecipitate FLAG-TNF-gamma-beta

B8: IL-1α: cytokine stimulus of HUVEC cells (protein, UniProt P01583 113-271, looked up)
Interleukin-1 alpha: SAPFSFLSNVKYNFMRIIKYEFILNDALNQSIIRANDQYLTAAALHNLDEAVKFDMGAYKSSKDDAKITVILRISKTQLYVTAQDEDQPVLLKEMPEIPKTITGSETNLLFFWETHGTKNYFTSVAHPNLFIATKQDYWVCLAGGPPSITDFQILENQA
time of peak in expression of TNF-gamma-beta mRNA (HUVEC cells): 6 h
TNF-gamma-beta mRNA level (HUVEC cells): rapidly induced high levels of TNF-gamma-beta mRNA

B11: IFNγ: cytokine stimulus of HUVEC cells (protein, UniProt P01579 24-161, looked up)
Interferon gamma: QDPYVKEAENLKKYFNAGHSDVADNGTLFLGILKNWKEESDRKIMQSQIVSFYFKLFKNFKDDQSIQKSVETIKEDMNVKFFNSNKKKRDDFEKLTNYSVTDLNVQRKAIHELIQVMAELSPAAKTGKRKRSQMLFRG
TNF-gamma-beta mRNA level (HUVEC cells): did not significantly affect the expression of TNF-gamma-beta

Now from value to molecule, other results behind:

inhibition of TNF-gamma-beta activation of NF-κB (TNF-gamma-beta [1]): not able to inhibit
Molecule: TNFR1.Fc: Fc-fusion of TNFR1, control receptor [reference compound]
inhibition of TNF-gamma-beta activation of NF-κB (TNF-gamma-beta [1]; listed as TNFR1-Fc): but not by the addition of Fas-Fc or TNFR1-Fc

binding result [2]: no binding
B5: Fc-fusion form of the extracellular domain of OX40 (Fc fusion, UniProt P43489 29-214, looked up)
chain: LHCVGDTYPSNDRCCHECRPGNGMVSRCSRSQNTVCRPCGPGFYNDVVSSKPCKPCTWCNLRSGSERKQLCTATQDTVCRCRAGTQPLDSYKPGVDCAPCPPGHFSPGDNQACKPWTNCTLAGKHTLQPASNSSDAICEDRDPPATQPQETQGPPARPITVQPTEAWPRTSQGPSTRPVEVPGGRA
notes: as for B1

binding result [2]: no binding
B6: TNFR1-Fc (Fc fusion, UniProt P19438 30-211, looked up)
chain: LVPHLGDREKRDSVCPQGKYIHPQNNSICCTKCHKGTYLYNDCPGPGQDTDCRECESGSFTASENHLRHCLSCSKCRKEMGQVEISSCTVDRDTVCGCRKNQYRHYWSENLFQCFNCSLCLNGTVHLSCQEKQNTVCTCHAGFFLRENECVSCSNCKKSLECTKLCLPQIENVKGTEDSGTT
notes: extracellular domain; also called Fc-fusion form of the extracellular domain of TNFR1; not shown: Fc part of the fusion

binding result [2]: no binding
B9: Fc-fusion form of the extracellular domain of DcR1 (Fc fusion, UniProt O14798 26-221, looked up)
chain: ATTARQEEVPQQTVAPQQQRHSFKGEECPAGSHRSEHTGACNPCTEGVDYTNASNNEPSCFPCTVCKSDQKHKSSCTMTRDTVCQCKEGTFRNENSPEMCRKCSRCPSGEVQVSNCTSWDDIQCVEEFGANATVETPAAEETMNTSPGTPAPAAEETMNTSPGTPAPAAEETMTTSPGTPAPAAEETMTTSPGTPA
notes: as for B1

binding result [2]: no binding
B10: Fc-fusion form of the extracellular domain of AITR (Fc fusion, UniProt Q9Y5U5 26-162, looked up)
chain: QRPTGGPGCGPGRLLLGTGTDARCCRVHTTRCCRDYPGEECCSEWDCMCVQPEFHCGDPCCTTCRHHPCPPGQGVQSQGKFSFGFQCIDCASGTFSGGHEGHCKPWTDCTQFGFLTVFPGNKTHNAVCVPGSPPAEP
notes: as for B1
